Assay results taken from paper PMC6905856, “Movement of accessible plasma membrane cholesterol by the GRAMD1 lipid transfer protein complex” (eLife, 2019).

Biological target: the molecule itself
Test: SEC; purified EGFP fusion of the luminal helix region alone on Superdex 200 increase 10/300 GL; 20 mM HEPES, 300 mM NaCl, 10% glycerol, 0.5 mM TCEP, pH 7.5; self-association judged from the elution volume

B1: EGFP-tagged luminal helix region of wild-type GRAMD1b (EGFP–helix: EGFP–GRAMD1b 674–718) (domain or fragment, human, UniProt Q3KR37-1 674-718, looked up)
chain: SQTEWAQLLESQQKYHDTELQKWREIIKSSVMLLDQMKDSLINLQ
notes: GRAMD1b, human, luminal helix region, residues 674-718; Predicted molecular weight ~35 kDa; also called EGFP-linker-GRAMD1b luminal helix; EGFP–(GGGS)3–GRAMD1b luminal helix (674–718); source: E. coli BL21-DE3 Rosetta, purified (Co-TALON or Ni-NTA, gel filtration on Superdex 200 increase); not shown: EGFP with (GGGS)3 linker, N-terminal, kept
binding result: binds
